Source: patent US20260000597A1 (priority 2018, published 2026)

biological target: AchR (Homo sapiens, UniProt P02708); assay: ELISA of screened peptide phages on AchR versus streptavidin (OD450); format: binding; details: ELISA of selected 11-mer (L2) peptide phages on AchR, absorbance at 450 nm; Spep-2 positive control
Method in brief: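 Phage supernatants from 4th–5th round plaques, in 2% BSA, applied 1 h at 30 °C to wells coated with 5 μg/ml AchR or streptavidin. Bound phage detected with HRP anti-M13 and TMB at OD450; value given as AchR/streptavidin signal ratio.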

AchR, sequence (P02708 21-457): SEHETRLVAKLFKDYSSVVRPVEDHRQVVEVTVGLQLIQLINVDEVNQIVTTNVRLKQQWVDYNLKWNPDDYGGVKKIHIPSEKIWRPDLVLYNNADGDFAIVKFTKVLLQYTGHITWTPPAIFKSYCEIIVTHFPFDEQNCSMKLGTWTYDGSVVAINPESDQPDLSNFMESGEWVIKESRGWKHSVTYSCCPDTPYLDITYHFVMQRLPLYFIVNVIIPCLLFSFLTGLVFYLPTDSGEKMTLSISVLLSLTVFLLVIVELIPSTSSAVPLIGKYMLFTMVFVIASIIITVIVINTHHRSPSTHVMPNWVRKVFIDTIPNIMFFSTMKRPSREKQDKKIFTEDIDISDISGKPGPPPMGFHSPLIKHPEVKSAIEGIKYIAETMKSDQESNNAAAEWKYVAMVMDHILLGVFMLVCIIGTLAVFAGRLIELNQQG

Substance | OD
L2-59 (FGVKYRRVICR; AchR binding peptide) [Peptide L2-59] | 0.69
L2-165 (AYPKFRKTFNR; AchR binding peptide) [Peptide L2-165] | 0.718
L2-164 (VPTKMKKYETK; AchR binding peptide) [Peptide L2-164] | 0.733
L2-152 (IALKPKRVWLK; AchR binding peptide) [Peptide L2-152] | 0.681
L2-22 (MMMRHKRCQYR; AchR binding peptide) [Peptide L2-22] | 0.75
L2-126 (AMMKYKKEFPK; AchR binding peptide) [Peptide L2-126] | 0.605
L2-128 (SPWRIRRQNIR; AchR binding peptide) [Peptide L2-128] | 0.516
L2-132 (LFTRIKRLVCK; AchR binding peptide) [Peptide L2-132] | 0.515
L2-166 (QQLRLRKLCGK; AchR binding peptide) [Peptide L2-166] | 0.579
L2-98 (LMLRGKRLTTK; AchR binding peptide) [Peptide L2-98] | 0.626
L2-148 (DSNKVRKCSSK; AchR binding peptide) [Peptide L2-148] | 0.604
L2-185 (FITRFRKMGEK; AchR binding peptide) [Peptide L2-185] | 0.742
L2-177 (LNSKPRRVEFK; AchR binding peptide) [Peptide L2-177] | 0.768
L2-18 (LQSRSKKYSVK; AchR binding peptide) [Peptide L2-18] | 0.753
L2-140 (YPQKLRRTALK; AchR binding peptide) [Peptide L2-140] | 0.445
L2-103 (QYNKGRKIHVR; AchR binding peptide) [Peptide L2-103] | 0.571
L2-7 (WQMKTKKEIWK; AchR binding peptide) [Peptide L2-7] | 0.753
L2-94 (NPGKTKRWLQR; AchR binding peptide) [Peptide L2-94] | 0.642
L2-119 (FCRRSKKIGRR; AchR binding peptide) [Peptide L2-119] | 0.56
L2-26 (APWRLKRAPQR; AchR binding peptide) [Peptide L2-26] | 0.809
L2-24 (SFWRERKNGFR; AchR binding peptide) [Peptide L2-24] | 0.812
L2-174 (PLFKSRRAYVR; AchR binding peptide) [Peptide L2-174] | 0.693
L2-9 (ATCKPKRPWYK; AchR binding peptide) [Peptide L2-9] | 0.721
L2-124 (NVVRGRRLECR; AchR binding peptide) [Peptide L2-124] | 0.556
L2-161 (AWFRVKRSNCR; AchR binding peptide) [Peptide L2-161] | 0.579
L2-11 (GIPKYRRGCSR; AchR binding peptide) [Peptide L2-11] | 0.791

same assay, conditions: ELISA of selected 14-mer (L3) peptide phages on AchR, absorbance at 450 nm; Spep-2 positive control

Substance | OD
L3-66 (YISKSKKTAGRWFW; AchR binding peptide) [Peptide L3-66] | 0.738
L3-120 (FLYKAKKALMRDSL; AchR binding peptide) [Peptide L3-120] | 0.887
L3-77 (VLIKQRKWQDRSCS; AchR binding peptide) [Peptide L3-77] | 0.688
L3-98 (PNGKVRKRIRRRYF; AchR binding peptide) [Peptide L3-98] | 0.685
L3-14 (FPGKSKKQWHRLWP; AchR binding peptide) [Peptide L3-14] | 0.892
L3-64 (HEIKQKKYFHRGHD; AchR binding peptide) [Peptide L3-64] | 0.799
L3-46 (SAHKKRKQTLRCSE; AchR binding peptide) [Peptide L3-46] | 0.618
L3-68 (YSSKSRKLSPRTPR; AchR binding peptide) [Peptide L3-68] | 0.792
L3-156 (IVPRDRKQALRWTN; AchR binding peptide) [Peptide L3-156] | 0.799
L3-60 (EDLRCKKLELRSVI; AchR binding peptide) [Peptide L3-60] | 0.574
L3-47 (LYEKYKKHNNREDD; AchR binding peptide) [Peptide L3-47] | 0.558
L3-186 (YEHRHKRFFHKDMP; AchR binding peptide) [Peptide L3-186] | 0.799
L3-152 (VVIKCRKWTHKMDH; AchR binding peptide) [Peptide L3-152] | 0.818
L3-137 (QVVRLRRGKNRGTV; AchR binding peptide) [Peptide L3-137] | 0.565
L3-51 (NHHKTKRCSVRFNI; AchR binding peptide) [Peptide L3-51] | 0.754
L3-95 (SISRLRKAHQKFIP; AchR binding peptide) [Peptide L3-95] | 0.657
L3-113 (CLFKYRKSCVRLCG; AchR binding peptide) [Peptide L3-113] | 0.766
L3-19 (YMKKKRKSLLRTSL; AchR binding peptide) [Peptide L3-19] | 0.796
L3-86 (SEVRPKKDHSRLFI; AchR binding peptide) [Peptide L3-86] | 0.755

Substance | OD
L3-150 (YLSRTKRWLARYVE; AchR binding peptide) [Peptide L3-150] | 0.518
L3-82 (HMCRSKRVAWKNLI; AchR binding peptide) [Peptide L3-82] | 0.783
L3-191 (GINRGRKVSPKDEQ; AchR binding peptide) [Peptide L3-191] | 0.739
L3-13 (YCTRIRREGMKGSE; AchR binding peptide) [Peptide L3-13] | 0.862
L3-53 (HCLRTKKLINKICS; AchR binding peptide) [Peptide L3-53] | 0.679
L3-177 (FQPKSRRAETKHSY; AchR binding peptide) [Peptide L3-177] | 0.735
L3-136 (PFDRARRDLHRIMM; AchR binding peptide) [Peptide L3-136] | 0.512
L3-193 (AAYRARKIVEKSGW; AchR binding peptide) [Peptide L3-193] | 0.755
L3-119 (TPLKSRKYWNKHAY; AchR binding peptide) [Peptide L3-119] | 0.693
L3-70 (DHERERRLWSRFPF; AchR binding peptide) [Peptide L3-70] | 0.781
L3-135 (NDHRMRRSVDRGET; AchR binding peptide) [Peptide L3-135] | 0.69
L3-41 (GWLKAKRFPSRPPT; AchR binding peptide) [Peptide L3-41] | 0.81
L3-178 (PDLKFRKHQDRTAI; AchR binding peptide) [Peptide L3-178] | 0.755
L3-160 (LTSRCKKTFQKNSE; AchR binding peptide) [Peptide L3-160] | 0.792
L3-76 (QMGKFKKISLKNTF; AchR binding peptide) [Peptide L3-76] | 0.701
L3-67 (VTWKFRKAEKRWGY; AchR binding peptide) [Peptide L3-67] | 0.786
L3-176 (MIGKCRKCGTKCYA; AchR binding peptide) [Peptide L3-176] | 0.739
L3-141 (FFYRLRRCLTRWWV; AchR binding peptide) [Peptide L3-141] | 0.504
L3-131 (YTPKFRRIFWRIID; AchR binding peptide) [Peptide L3-131] | 0.655

same assay, conditions: phage ELISA, absorbance at 450 nm, 5 μg/ml AchR; 4th and 5th round biopanning phages

Substance | OD
KQKKTGFR [Peptide L1-55] | 0.585
RPKRNWAK [Peptide L1-96] | 0.494
RIRRVSQR [Peptide L1-60] | 0.484
RWKKNINK [Peptide L1-80] | 0.631
RSRRGIGK [Peptide L1-192] | 0.581
RRRRRRRRRRR [Peptide L2-201, reference compound] | 0.307
KQKRQWAR [Peptide L1-191] | 0.649
KRRRFRWK [Peptide L1-40] | 0.424
RAKKCYHK [Peptide L1-50] | 0.583
KTRKQDHR [Peptide L1-172] | 0.631
KERKHEAK [Peptide L1-62] | 0.633
RCRKDTAR [Peptide L1-142] | 0.469
RGRRGTMR [Peptide L1-93] | 0.616
RSRRCPVK [Peptide L1-119] | 0.463
RGRRWFVK [Peptide L1-28] | 0.656
KEKKLVWK [Peptide L1-174] | 0.596
GGGRKKRRQRR [Peptide L2-202, reference compound] | 0.314

Substance | OD
GGGRKKRRQRRRGG [Peptide L3-201, reference compound] | 0.315
KTRKIVMK [Peptide L1-199] | 0.596
KIKRDLYK [Peptide L1-90] | 0.439
KGKRTGCK [Peptide L1-126] | 0.362
KLRKQKLR [Peptide L1-43] | 0.601
RGKKAVRK [Peptide L1-20] | 0.619
KTKKLYEK [Peptide L1-25] | 0.709
KMRKGWDK [Peptide L1-138] | 0.373
KLKRAMLK [Peptide L1-169] | 0.636
KFKKSAPR [Peptide L1-136] | 0.392
RVRRDGHR [Peptide L1-49] | 0.504
RQRKSMQR [Peptide L1-27] | 0.662
GGRKKRRQRRR [Peptide L2-203, reference compound] | 0.302
KFKRTEGR [Peptide L1-19] | 0.575
RLKRGQFK [Peptide L1-85] | 0.57
REKKQEVK [Peptide L1-150] | 0.457
RMKKFHTR [Peptide L1-128] | 0.301
